Bridge positions count the residues as written; N and C are the ends. Square brackets hold non-standard residues; d marks the D form. Ends that are not written are not given here. 2‑(7-octenyl)alanine = olefinic alpha-amino acid with 7-octenyl side chain, staple residue; 2‑(4-pentenyl)alanine = 2-(4-pentenyl)alanine
Tests used:
Format in all cases: physicochemical
[1] = Circular dichroism of Lacripep acetate salt vs dodecylphosphocholine form in phosphate buffer (Example 2); conditions: CD, 0.2 mg/ml; for alpha helicity: 10 mM phosphate, 137 mM NaCl, 2.7 mM KCl buffer pH 7.4, 35° C., dpC forms with 10 mM dodecylphosphocholine; for irregular: phosphate buffer pH 7.4, 35° C., 10 mM dodecylphosphocholine
Protocol: Lacripep™ (SEQ ID NO:1) was synthesized either without (unmodified, KQFIENGSEFAQKLLKKFS) or with (modified, Ac-KQFIENGSEFAQKLLKKFS-NH2)N-terminal acetylation and C-terminal amidation as an acetate salt. The compounds (0.2 mg/ml) were reconstituted in 10 mM phosphate, 137 mM NaCl, 2.7 mM KCl buffer, pH 7.4 with 10 mM dodecylphosphocholine for circular dichroism. CD spectra were obtained using the Jasco 810 CD/ORD with Fluorescence Monochrometer in a 1 mm quartz cell from Starna Cells, Inc. Spectra were obtained at 35° C. from 250 nm to 190 nm in continuous scanning mode (scanning speed, 100 nm/min; data pitch, 0.1 nm; bandwidth, 1 nm; response time, 4 s) with a nitrogen flow rate of 100 mL/min. An average of 3 spectra were obtained for each sample (N=3). Analysis of the dichroism spectra can use methods known in the art, including, DichroWeb: On-line analysis for protein Circular Dichroism spectra; Whitmore, L. and Wallace, B. A. (2008) Biopolymers 89: 392-400; Whitmore, L. and Wallace, B. A. (2004) Nucleic Acids Research 32: W668-673, each of which is incorporated by reference herein in its entirety.

[2] = Circular dichroism of Lacripep oleate salt vs acetate salt in citrate buffer (Example 3); conditions: CD, 0.2 mg/mL, 10 mM sodium citrate buffer pH 6.5, 35° C.
Protocol: Lacripep™ (SEQ ID NO:1) was synthesized either without or with N-terminal acetylation and C-terminal amidation as an acetate salt. The compounds were reconstituted in 10 mM sodium citrate buffer, pH 6.5 for circular dichroism. Lacripep™ synthesized either without or with N-terminal acetylation and C-terminal amidation as an acetate salt was converted to an oleate salt by dissolving 1 equivalent of the Lacripep™ acetate salt and 4 equivalents of oleic acid (one oleic acid per lysine residue in Lacripep™) in a mixture of water buffered with citric acid to pH 6.5. The resulting solutions were then flash frozen and lyophilized under vacuum to remove the more volatile acetic acid. The lyophilized powder is suspended in water and the pH is adjusted to between 6.2 to 6.8 with citric acid and sodium citrate and the osmolality to between 250 to 350 mOsm/kg. […]
CD spectra were obtained using the Jasco 810 CD/ORD with Fluorescence Monochrometer in a 1 mm quartz cell from Starna Cells, Inc. Spectra were obtained at 35° C. from 250 nm to 190 nm in continuous scanning mode (scanning speed, 100 nm/min; data pitch, 0.1 nm; bandwidth, 1 nm; response time, 4 s) with a nitrogen flow rate of 100 mL/min. […]

[3] = Circular dichroism of cysteine disulfide constrained Lacripep acetate salts in citrate buffer (Example 8); conditions: 10 mM sodium citrate buffer pH 6.5, 0.2 mg/mL, 35° C.; for helicity (CD spectra): absence of 10 mM DPC; for negative CD signal between 200 nm and 230 nm: presence of DPC (10 mM)
Protocol: (§1) Cysteine Disulfide Constrained Analogs of Lacripep™ (SEQ ID NO:1) were synthesized with N-terminal acetylation and C-terminal amidation as an acetate salt. The compounds were reconstituted in 10 mM sodium citrate buffer, pH 6.5 for circular dichroism, with or without 10 mM DPC. The resulting citric acid buffered solutions were tested for circular dichroism.
(§2) CD spectra were obtained using the Jasco 810 CD/ORD with Fluorescence Monochrometer in a 1 mm quartz cell from Starna Cells, Inc. Spectra were obtained at 35° C. from 250 nm to 190 nm in continuous scanning mode (scanning speed, 100 nm/min; data pitch, 0.1 nm; bandwidth, 1 nm; response time, 4 s) with a nitrogen flow rate of 100 mL/min. An average of 3 spectra were obtained for each sample (N=3).

[4] = Circular dichroism of alkene constrained (stapled) Lacripep acetate salts in citrate buffer (Example 7); conditions: 10 mM sodium citrate buffer pH 6.5, 0.2 mg/mL, 35° C.
Protocol: as §1, with “Alkene” for “Cysteine Disulfide”, “n-DodecylPhosphoCholine (DPC).” for “DPC.”
as §2

Substance: Ac-KQFIENGSEFAQKLLKKFS-NH2 [modified dpC form] (also: dpC form) [terminally modified Lacripep constrained with 10 mM dodecylphosphocholine]
- alpha helicity [1]: 100%
- irregular [1]: 0%

Substance: KQFIENGSEFAQKLLKKFS [unmodified acetate salt form] (not fully specified (N-terminus, C-terminus); also: acetate salt) [Lacripep without N-terminal acetylation and C-terminal amidation, acetate salt]
- alpha helicity [1]: 27%
- alpha helicity [2]: 28%

Substance: Ac-KQF IEN C(S-)SE C(S-)AQ KLL KKF S-NH2 (Ac-KQFIENCSECAQKLLKKFS-NH2; bridge 7-10; not fully specified (bridges); printed as Ac-KQF IEN C(S-)SE C(S-)AQ KLL KKF S-NH2; listed as Homo sapiens) [SEQ ID NO: 70]
- helicity (CD spectra) [3]: significant helicity

Substance: Ac-KQF IEN GSE FAQ KC(S-)L KC(S-)F S-NH2 (Ac-KQFIENGSEFAQKCLKCFS-NH2; disulfide 14-17; SMILES CC[C@H](C)[C@H](NC(=O)[C@H](Cc1ccccc1)NC(=O)[C@H](CCC(N)=O)NC(=O)[C@H](CCCCN)NC(C)=O)C(=O)N[C@@H](CCC(=O)O)C(=O)N[C@@H](CC(N)=O)C(=O)NCC(=O)N[C@@H](CO)C(=O)N[C@@H](CCC(=O)O)C(=O)N[C@@H](Cc1ccccc1)C(=O)N[C@@H](C)C(=O)N[C@@H](CCC(N)=O)C(=O)N[C@@H](CCCCN)C(=O)N[C@H]1CSSC[C@@H](C(=O)N[C@@H](Cc2ccccc2)C(=O)N[C@@H](CO)C(N)=O)NC(=O)[C@H](CCCCN)NC(=O)[C@H](CC(C)C)NC1=O; listed as Homo sapiens) [SEQ ID NO: 69]
- helicity (CD spectra) [3]: significant helicity
- negative CD signal between 200 nm and 230 nm [3]: −5 to −10 Δε

Substance: Ac-KQFIENGSEFAQKLLKKFS-NH2 [modified acetate salt form] (also: acetate salt) [Lacripep with N-terminal acetylation and C-terminal amidation, acetate salt]
- alpha helicity [1]: 28%
- alpha helicity [2]: 29%

Substance: Ac-KQFIENGSEFAQKLLKKFS-NH2 (listed as Homo sapiens) [Lacripep]
- helicity (CD spectra) ([4]; absence of 10 mM DPC): little helicity
- helicity (CD spectra) [3]: significant helicity

Substance: Ac-KQ [2-(7-octenyl) alanine]-IENGSE-[2-(4-pentenyl) alanine]-AQKLLKKFS-NH2 (Ac-KQ[2‑(7-octenyl)alanine]IENGSE[2‑(4-pentenyl)alanine]AQKLLKKFS-NH2; staple 3-10; listed as Homo sapiens) [SEQ ID NO: 59]
- negative CD signal between 200 nm and 230 nm ([4]; presence of 10 mM DPC): approximately −50 Δε

Substance: Ac-KQF C(S-)EN C(S-)SE FAQ KLL KKF S-NH2 (Ac-KQFCENCSEFAQKLLKKFS-NH2; disulfide 4-7; SMILES CC(=O)N[C@@H](CCCCN)C(=O)N[C@@H](CCC(N)=O)C(=O)N[C@@H](Cc1ccccc1)C(=O)N[C@H]1CSSC[C@@H](C(=O)N[C@@H](CO)C(=O)N[C@@H](CCC(=O)O)C(=O)N[C@@H](Cc2ccccc2)C(=O)N[C@@H](C)C(=O)N[C@@H](CCC(N)=O)C(=O)N[C@@H](CCCCN)C(=O)N[C@@H](CC(C)C)C(=O)N[C@@H](CC(C)C)C(=O)N[C@@H](CCCCN)C(=O)N[C@@H](CCCCN)C(=O)N[C@@H](Cc2ccccc2)C(=O)N[C@@H](CO)C(N)=O)NC(=O)[C@H](CC(N)=O)NC(=O)[C@H](CCC(=O)O)NC1=O; listed as Homo sapiens) [SEQ ID NO: 72]
- helicity (CD spectra) [3]: significant helicity
- negative CD signal between 200 nm and 230 nm [3]: −20 to −30 Δε

Substance: KQFIENGSEFAQKLLKKFS [unmodified dpC form] (not fully specified (N-terminus, C-terminus)) [unmodified Lacripep constrained with 10 mM dodecylphosphocholine]
- alpha helicity [1]: 92%
- irregular [1]: 8%
